Data published in doi:10.1101/2020.10.28.360099 (bioRxiv, 2020).

Assays:
[1] = target: recombinant jack bean conA precursor (pro-conA) (Canavalia ensiformis (jack bean)); assay: crystal structure
crystal structure = target: the molecule itself; assay: crystal structure

recombinant jack bean conA precursor (pro-conA) (natural protein), sequence (P02866 30-290): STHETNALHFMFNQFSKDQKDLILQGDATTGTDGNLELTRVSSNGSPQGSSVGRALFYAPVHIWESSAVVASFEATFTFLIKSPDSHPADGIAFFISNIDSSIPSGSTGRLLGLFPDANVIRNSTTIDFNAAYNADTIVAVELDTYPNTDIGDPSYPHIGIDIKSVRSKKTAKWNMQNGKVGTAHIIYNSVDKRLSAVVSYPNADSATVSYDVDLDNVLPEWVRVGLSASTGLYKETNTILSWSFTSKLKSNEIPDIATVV

Molecule | stoichiometry N [1] | stoichiometry N (crystal structure)
recombinant jack bean conA precursor (pro-conA) (natural protein) | 2 | –
jack bean asparaginyl endopeptidase 1 (CeAEP1) (enzyme, Canavalia ensiformis (jack bean), UniProt P49046 36-475, looked up, succinimide intermediate (SNN) modelled at Asp157) EVGTRWAVLVAGSNGYGNYRHQADVCHAYQLLIKGGVKEENIVVFMYDDIAYNAMNPRPGVIINHPQGPDVYAGVPKDYTGEDVTPENLYAVILGDKSKVKGGSGKVINSNPEDRIFIFYSDHGGPGVLGMPNAPFVYAMDFIDVLKKKHASGGYKEMVIYIEACESGSIFEGIMPKDLNIYVTTASNAQENSFGTYCPGMNPPPPEEYVTCLGDLYSVSWMEDSETHNLKRETVQQQYQSVRKRTSNSNSYRFGSHVMQYGDTNITAEKLYLYHGFDPATVNFPPHNGNLEAKMEVVNQRDAELLFMWQMYQRSNHQPEKKTHILEQITETVKHRNHLDGSVELIGVLLYGPGKSSSVLHSVRAPGLPLVDDWTCLKSMVRVFETHCGSLTQYGMKHMRAFGNVCNSGVSKASMEEACKAACGGYDAGLLYPSNTGYSA | – | 2
